This is an account of results in patent US8324357, “Universal fieldable assay with unassisted visual detection” (University of Southern California).

In data set [1] the target is Russell's viper venom factor X activator (RVV-X) (UniProt Q7LZ61;Q4PRD1;Q4PRD2 Q7LZ61:189-619,Q4PRD1:24-146,Q4PRD2:25-158). As to the kind of experiment: EMSA. The following applies: tags: Haematologic Technologies. For orientation: A gel shift assay detects complexes by their altered migration in electrophoresis.
Data set [2] deals with VEGF165 (Homo sapiens, UniProt P15692-4 P15692-4:27-191). As to the kind of experiment: EMSA; IC buffer, 3 mM CaCl2. Particulars: tags: R&D Systems or USB; chain copies: 2 (inferred).
Sequence of VEGF165 (P15692 other isoform, or with tags, fused parts or gaps): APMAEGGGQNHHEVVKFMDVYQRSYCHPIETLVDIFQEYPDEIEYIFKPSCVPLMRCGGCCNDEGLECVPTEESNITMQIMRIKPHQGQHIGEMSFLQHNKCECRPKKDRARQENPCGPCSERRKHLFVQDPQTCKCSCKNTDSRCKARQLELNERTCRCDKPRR

Sequence of Russell's viper venom factor X activator (RVV-X) (Q7LZ61 189-619, chain 1 of 3): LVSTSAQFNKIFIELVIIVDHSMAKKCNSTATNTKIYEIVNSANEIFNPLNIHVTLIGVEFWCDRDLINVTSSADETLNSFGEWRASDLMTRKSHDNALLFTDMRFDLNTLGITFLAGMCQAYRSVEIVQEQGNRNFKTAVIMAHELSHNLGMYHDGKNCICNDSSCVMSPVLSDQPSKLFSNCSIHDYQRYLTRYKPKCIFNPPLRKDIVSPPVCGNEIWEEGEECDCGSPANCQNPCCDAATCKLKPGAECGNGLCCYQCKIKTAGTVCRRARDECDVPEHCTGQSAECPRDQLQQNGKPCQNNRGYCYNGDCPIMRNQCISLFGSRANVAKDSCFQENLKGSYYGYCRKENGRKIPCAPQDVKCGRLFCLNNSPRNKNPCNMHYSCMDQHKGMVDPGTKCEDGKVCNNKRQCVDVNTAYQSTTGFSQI
Sequence of Russell's viper venom factor X activator (RVV-X) (Q4PRD1 24-146, chain 2 of 3): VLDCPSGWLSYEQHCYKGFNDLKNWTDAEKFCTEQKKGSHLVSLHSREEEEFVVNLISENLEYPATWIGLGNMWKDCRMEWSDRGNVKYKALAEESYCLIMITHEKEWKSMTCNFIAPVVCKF
Sequence of Russell's viper venom factor X activator (RVV-X) (Q4PRD2 25-158, chain 3 of 3): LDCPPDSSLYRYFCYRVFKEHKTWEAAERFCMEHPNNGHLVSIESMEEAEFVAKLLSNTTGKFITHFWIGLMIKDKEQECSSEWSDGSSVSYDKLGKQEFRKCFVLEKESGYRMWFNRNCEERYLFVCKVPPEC

B1: RNA132 (ssRNA)
RNA: GGGAGGGAAUCAGUGAAUGCUUAUACAUCCCUCCUUGAGCAGUCGAUUAGUUUCGACAGGAGGCUCAC
One may read the Kd as the free concentration of one partner at which half of the binding sites on the other are occupied at equilibrium, for simple one-to-one binding. Low readings indicate tighter binding, high ones weaker binding. As for B1, the Kd in data set [1] and in data set [2] was 5.7 nM each time.
